Source: patent EP4574844A1 (Numab Therapeutics AG, dated 2025)

Assays:
[1] = target: T1, recombinant human LILRB2 (human, UniProt Q8N423 22-460, limits assumed); assay: SPR, LILRB2 immobilised, scFv as analyte
T1 construct: also called ILT4

[2] = target: T2, LILRA3 on transiently transfected CHO cells (UniProt Q8N6C8 24-439); assay: CELISA, transiently transfected CHO cells; scFv cross-linked with an anti-framework antibody
T2 construct: whole, on cells; V5 tag at the N-terminus

[3] = target: T3, LILRB4 on transiently transfected CHO cells (UniProt Q8NHJ6 22-448); assay: as above
T3 construct: whole, on cells; V5 tag at the N-terminus

[4] = target: T4, LILRA6 on transiently transfected CHO cells (UniProt Q6PI73 24-481); assay: as above
T4 construct: whole, on cells; V5 tag at the N-terminus
T4 sequence (Q6PI73 24-481): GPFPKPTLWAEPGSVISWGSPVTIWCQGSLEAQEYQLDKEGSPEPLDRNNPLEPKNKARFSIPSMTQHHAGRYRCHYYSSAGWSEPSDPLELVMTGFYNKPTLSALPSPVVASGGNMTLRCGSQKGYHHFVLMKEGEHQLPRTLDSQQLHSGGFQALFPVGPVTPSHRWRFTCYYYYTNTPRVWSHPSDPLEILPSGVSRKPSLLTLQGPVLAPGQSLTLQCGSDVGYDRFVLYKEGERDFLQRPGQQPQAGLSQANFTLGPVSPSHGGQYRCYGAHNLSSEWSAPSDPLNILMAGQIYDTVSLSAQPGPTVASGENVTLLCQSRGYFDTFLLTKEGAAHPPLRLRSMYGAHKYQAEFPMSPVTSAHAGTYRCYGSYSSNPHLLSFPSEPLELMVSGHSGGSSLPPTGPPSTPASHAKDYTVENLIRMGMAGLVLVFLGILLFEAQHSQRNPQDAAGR

[5] = target: T5, LILRA5 on transiently transfected CHO cells (UniProt A6NI73 42-299); assay: as above
T5 construct: whole, on cells; V5 tag at the N-terminus
T5 sequence (A6NI73 42-299): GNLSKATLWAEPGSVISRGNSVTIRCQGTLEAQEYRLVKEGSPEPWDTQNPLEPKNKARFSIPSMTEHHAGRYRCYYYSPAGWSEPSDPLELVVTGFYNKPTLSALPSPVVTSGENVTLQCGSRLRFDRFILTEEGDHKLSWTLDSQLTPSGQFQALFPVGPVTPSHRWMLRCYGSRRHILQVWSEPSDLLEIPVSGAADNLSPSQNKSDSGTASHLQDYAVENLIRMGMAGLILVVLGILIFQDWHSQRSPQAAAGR

[6] = target: T6, LILRB3 on transiently transfected CHO cells (UniProt O75022 24-631, limits assumed); assay: as above
T6 construct: whole, on cells; V5 tag at the N-terminus

[7] = target: T7, LILRA1 on transiently transfected CHO cells (UniProt O75019 17-489, limits assumed); assay: as above
T7 construct: whole, on cells; V5 tag at the N-terminus
T7 sequence (O75019 17-489 limits assumed): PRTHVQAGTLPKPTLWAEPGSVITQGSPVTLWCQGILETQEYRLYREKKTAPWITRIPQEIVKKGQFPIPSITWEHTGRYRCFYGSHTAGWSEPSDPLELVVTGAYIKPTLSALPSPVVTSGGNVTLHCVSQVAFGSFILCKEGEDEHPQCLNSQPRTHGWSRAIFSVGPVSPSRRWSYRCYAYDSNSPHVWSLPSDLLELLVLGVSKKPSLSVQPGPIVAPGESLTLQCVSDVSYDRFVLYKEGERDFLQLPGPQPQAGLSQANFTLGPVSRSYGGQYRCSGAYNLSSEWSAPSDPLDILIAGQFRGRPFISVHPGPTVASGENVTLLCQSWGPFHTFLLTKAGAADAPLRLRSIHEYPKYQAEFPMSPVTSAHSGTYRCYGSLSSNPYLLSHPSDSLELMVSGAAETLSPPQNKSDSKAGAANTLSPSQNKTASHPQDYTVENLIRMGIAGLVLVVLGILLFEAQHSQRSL

[8] = target: T8, LILRB5 on transiently transfected CHO cells (UniProt O75023 24-590, limits assumed); assay: as above
T8 construct: whole, on cells; V5 tag at the N-terminus
T8 sequence (O75023 24-590 limits assumed): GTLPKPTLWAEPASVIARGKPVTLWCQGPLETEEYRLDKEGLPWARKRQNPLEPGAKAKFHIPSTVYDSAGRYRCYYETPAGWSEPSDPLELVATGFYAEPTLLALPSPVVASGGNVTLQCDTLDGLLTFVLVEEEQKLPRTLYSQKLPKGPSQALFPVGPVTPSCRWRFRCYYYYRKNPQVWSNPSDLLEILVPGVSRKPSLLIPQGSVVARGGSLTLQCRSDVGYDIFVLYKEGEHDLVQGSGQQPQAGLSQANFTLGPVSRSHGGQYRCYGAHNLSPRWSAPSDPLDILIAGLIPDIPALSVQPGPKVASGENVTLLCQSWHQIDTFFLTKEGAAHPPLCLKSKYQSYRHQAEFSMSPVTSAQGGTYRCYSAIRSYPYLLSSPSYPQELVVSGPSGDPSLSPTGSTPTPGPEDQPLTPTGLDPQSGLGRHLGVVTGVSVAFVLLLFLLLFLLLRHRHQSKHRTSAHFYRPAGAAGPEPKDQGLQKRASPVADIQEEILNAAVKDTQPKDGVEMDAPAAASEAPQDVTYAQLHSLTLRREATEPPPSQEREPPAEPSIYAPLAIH

[9] = target: T9, LILRA4 on transiently transfected CHO cells (UniProt P59901 24-499); assay: as above
T9 construct: whole, on cells; V5 tag at the N-terminus
T9 sequence (P59901 24-499): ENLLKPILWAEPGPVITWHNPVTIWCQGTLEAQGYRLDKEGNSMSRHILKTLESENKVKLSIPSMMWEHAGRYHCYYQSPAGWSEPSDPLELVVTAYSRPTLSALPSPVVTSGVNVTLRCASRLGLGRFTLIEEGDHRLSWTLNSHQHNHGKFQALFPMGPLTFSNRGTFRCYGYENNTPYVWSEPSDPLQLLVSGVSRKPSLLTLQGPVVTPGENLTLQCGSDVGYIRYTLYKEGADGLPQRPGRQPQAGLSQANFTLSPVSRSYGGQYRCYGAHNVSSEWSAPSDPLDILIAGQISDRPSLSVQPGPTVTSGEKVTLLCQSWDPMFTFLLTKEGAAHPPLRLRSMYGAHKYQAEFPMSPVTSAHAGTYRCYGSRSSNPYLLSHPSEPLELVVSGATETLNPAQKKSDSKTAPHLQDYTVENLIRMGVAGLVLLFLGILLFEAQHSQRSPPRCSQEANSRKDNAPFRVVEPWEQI

[10] = target: T10, LILRA2 on transiently transfected CHO cells (UniProt Q8N149 24-483); assay: as above
T10 construct: whole, on cells; V5 tag at the N-terminus
T10 sequence (Q8N149 24-483): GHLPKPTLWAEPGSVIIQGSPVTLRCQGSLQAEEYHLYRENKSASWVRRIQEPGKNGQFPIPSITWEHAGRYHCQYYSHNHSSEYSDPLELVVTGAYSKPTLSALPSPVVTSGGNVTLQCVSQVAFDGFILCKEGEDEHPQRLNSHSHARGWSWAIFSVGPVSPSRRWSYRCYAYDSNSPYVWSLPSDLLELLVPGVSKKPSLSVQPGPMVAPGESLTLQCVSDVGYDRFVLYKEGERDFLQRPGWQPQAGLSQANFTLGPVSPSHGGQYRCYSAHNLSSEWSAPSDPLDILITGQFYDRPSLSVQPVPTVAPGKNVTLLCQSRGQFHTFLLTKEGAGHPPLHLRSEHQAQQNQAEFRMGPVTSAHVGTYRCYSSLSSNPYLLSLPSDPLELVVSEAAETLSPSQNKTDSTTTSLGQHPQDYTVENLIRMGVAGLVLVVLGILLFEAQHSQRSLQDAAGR

[11] = target: T11, human LILRB2 on the cell surface (human, UniProt Q8N423 22-597); assay: flow cytometry, CHO cells expressing LILRB2; competitor HLA-G tetramer; reference PRO2518
T11 construct: whole, on cells; also called CHO K1 cells expressing human LILRB2; LILRB2 on HMDMs
T11 sequence (Q8N423 22-597): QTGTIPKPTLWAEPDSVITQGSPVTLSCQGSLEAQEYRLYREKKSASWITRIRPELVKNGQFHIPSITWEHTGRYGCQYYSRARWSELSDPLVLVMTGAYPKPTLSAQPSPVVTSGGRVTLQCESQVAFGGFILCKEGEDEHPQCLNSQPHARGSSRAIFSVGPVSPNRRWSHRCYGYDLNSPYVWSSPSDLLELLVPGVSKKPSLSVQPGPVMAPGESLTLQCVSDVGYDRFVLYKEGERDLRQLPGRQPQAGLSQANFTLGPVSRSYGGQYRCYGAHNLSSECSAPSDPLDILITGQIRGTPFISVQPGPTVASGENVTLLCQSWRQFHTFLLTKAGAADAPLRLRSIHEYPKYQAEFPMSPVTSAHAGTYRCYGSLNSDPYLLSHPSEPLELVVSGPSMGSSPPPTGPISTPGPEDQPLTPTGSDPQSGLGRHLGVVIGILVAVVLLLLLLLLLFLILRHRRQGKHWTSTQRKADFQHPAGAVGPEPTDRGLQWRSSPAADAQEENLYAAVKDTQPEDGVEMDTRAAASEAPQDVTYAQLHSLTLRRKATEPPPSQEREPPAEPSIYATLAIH

[12] = target: T11, human LILRB2 on the cell surface; assay: flow cytometry, CHO cells expressing LILRB2; competitor HLA-G tetramer

T1 sequence (Q8N423 22-460 limits assumed): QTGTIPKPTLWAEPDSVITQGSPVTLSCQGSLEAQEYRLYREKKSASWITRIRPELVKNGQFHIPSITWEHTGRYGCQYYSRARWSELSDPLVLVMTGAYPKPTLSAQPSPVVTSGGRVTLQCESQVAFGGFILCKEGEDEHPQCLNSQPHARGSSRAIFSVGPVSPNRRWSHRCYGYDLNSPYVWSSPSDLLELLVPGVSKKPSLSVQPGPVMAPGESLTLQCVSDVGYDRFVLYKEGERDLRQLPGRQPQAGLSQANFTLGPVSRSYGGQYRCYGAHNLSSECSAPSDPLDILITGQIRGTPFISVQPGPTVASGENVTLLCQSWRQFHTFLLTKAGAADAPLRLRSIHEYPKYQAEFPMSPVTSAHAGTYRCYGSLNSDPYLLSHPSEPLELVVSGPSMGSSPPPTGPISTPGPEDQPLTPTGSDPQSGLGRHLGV
T2 sequence (Q8N6C8 24-439): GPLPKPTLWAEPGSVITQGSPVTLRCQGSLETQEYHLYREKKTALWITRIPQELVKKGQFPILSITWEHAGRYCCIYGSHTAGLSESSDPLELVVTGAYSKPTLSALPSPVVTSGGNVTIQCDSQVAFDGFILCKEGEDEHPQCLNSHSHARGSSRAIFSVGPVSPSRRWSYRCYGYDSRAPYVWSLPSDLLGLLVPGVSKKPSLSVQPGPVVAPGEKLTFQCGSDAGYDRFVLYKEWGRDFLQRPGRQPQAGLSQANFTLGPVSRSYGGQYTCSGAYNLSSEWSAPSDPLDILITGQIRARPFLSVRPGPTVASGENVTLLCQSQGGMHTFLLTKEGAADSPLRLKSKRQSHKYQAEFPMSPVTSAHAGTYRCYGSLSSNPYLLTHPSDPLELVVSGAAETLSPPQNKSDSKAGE

B1: PRO3697 (scFv)
scFv: AFQLTQSPSSLSASVGDRVTITCQASQSIGTYLAWYQQKPGKPPKLLIYRGGTLASGVPSRFSGSGSGTDFTLTISSLQPEDFATYYCQSYDSSNTFGTGTKVTVLGGGGGSGGGGSGGGGSGGGGSQEQLVESGGGLVQPGRSLRLSCAASGFDLSADYMCWVRQAPGKGLEWIACIYIDDDNTYYATWAKGRFTISKDNSKNTVYLQMNSLRAEDSAVYFCARGYGVYTGAITYFTLWGQGTLVKVSS
notes: anti-LILRB2 scFv; in the CELISA selectivity test it was cross-linked with an anti-framework antibody; also called 69-06-G04-sc05
In the case of B1, the Kd [1] is reported as 0.131 nM, the koff [1] is reported as 0.000128 s⁻¹ and the kon [1] is reported as 974000 M⁻¹ s⁻¹. B1: no binding [2]; no binding [3]; no binding [4]. B1: no binding [5]; no binding [6]; no binding [7]. B1: no binding [8]; no binding [9]; no binding [10]. The “Rel. max. inhibition % (rel. to J-19)” value [11] was 99.5% and the IC50 [12] was 0.593 nM.
